# From IntAct's records for PubMed 24879834
# B1: TBC1 domain family member 1 (Homo sapiens), Q86TI0 (parent)
# chain: MEPITFTARKHLLSNEVSVDFGLQLVGSLPVHSLTTMPMLPWVVAEVRRLSRQSTRKEPVTKQVRLCVSPSGLRCEPEPGRSQQWDPLIYSSIFECKPQRVHKLIHNSHDPSYFACLIKEDAVHRQSICYVFKADDQTKVPEIISSIRQAGKIARQEELHCPSEFDDTFSKKFEVLFCGRVTVAHKKAPPALIDECIEKFNHVSGSRGSESPRPNPPHAAPTGSQEPVRRPMRKSFSQPGLRSLAFRKELQDGGLRSSGFFSSFEESDIENHLISGHNIVQPTDIEENRTMLFTIGQSEVYLISPDTKKIALEKNFKEISFCSQGIRHVDHFGFICRESSGGGGFHFVCYVFQCTNEALVDEIMMTLKQAFTVAAVQQTAKAPAQLCEGCPLQSLHKLCERIEGMNSSKTKLELQKHLTTLTNQEQATIFEEVQKLRPRNEQRENELIISFLRCLYEEKQKEHIHIGEMKQTSQMAAENIGSELPPSATRFRLDMLKNKAKRSLTESLESILSRGNKARGLQEHSISVDLDSSLSSTLSNTSKEPSVCEKEALPISESSFKLLGSSEDLSSDSESHLPEEPAPLSPQQAFRRRANTLSHFPIECQEPPQPARGSPGVSQRKLMRYHSVSTETPHERKDFESKANHLGDSGGTPVKTRRHSWRQQIFLRVATPQKACDSSSRYEDYSELGELPPRSPLEPVCEDGPFGPPPEEKKRTSRELRELWQKAILQQILLLRMEKENQKLQASENDLLNKRLKLDYEEITPCLKEVTTVWEKMLSTPGRSKIKFDMEKMHSAVGQGVPRHHRGEIWKFLAEQFHLKHQFPSKQQPKDVPYKELLKQLTSQQHAILIDLGRTFPTHPYFSAQLGAGQLSLYNILKAYSLLDQEVGYCQGLSFVAGILLLHMSEEEAFKMLKFLMFDMGLRKQYRPDMIILQIQMYQLSRLLHDYHRDLYNHLEEHEIGPSLYAAPWFLTMFASQFPLGFVARVFDMIFLQGTEVIFKVALSLLGSHKPLILQHENLETIVDFIKSTLPNLGLVQMEKTINQVFEMDIAKQLQAYEVEYHVLQEELIDSSPLSDNQRMDKLEKTNSSLRKQNLDLLEQLQVANGRIQSLEATIEKLLSSESKLKQAMLTLELERSALLQTVEELRRRSAEPSDREPECTQPEPTGD
# partner: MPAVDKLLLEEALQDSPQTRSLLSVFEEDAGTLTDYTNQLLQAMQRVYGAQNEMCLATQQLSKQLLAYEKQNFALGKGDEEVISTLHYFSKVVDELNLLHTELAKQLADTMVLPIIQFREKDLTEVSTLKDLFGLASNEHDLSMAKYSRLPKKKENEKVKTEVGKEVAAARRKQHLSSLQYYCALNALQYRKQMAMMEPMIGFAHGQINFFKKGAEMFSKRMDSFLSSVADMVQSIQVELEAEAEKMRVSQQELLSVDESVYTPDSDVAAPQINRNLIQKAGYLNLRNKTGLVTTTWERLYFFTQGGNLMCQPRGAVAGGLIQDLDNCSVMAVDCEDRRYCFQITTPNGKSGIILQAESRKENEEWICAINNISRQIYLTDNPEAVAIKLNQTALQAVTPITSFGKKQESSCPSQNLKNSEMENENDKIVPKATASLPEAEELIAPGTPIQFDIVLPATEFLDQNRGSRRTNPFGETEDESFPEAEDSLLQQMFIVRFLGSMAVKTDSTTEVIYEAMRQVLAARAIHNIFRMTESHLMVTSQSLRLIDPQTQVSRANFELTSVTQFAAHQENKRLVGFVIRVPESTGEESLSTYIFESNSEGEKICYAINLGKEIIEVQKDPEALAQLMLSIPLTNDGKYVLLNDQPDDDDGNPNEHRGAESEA
# Variants of: B1
# Conditions: with dp13b_human APPL2, Q8NEU8
row,effect of a mutation on the interaction,Variant
1,disrupting interaction strength,S235A
2,with no effect,S237A
